Assay results published in patent US20230183713A1, “SITE-SPECIFIC RECOMBINASES FOR EFFICIENT AND SPECIFIC GENOME EDITING” (TECHNISCHE UNIVERSITÄt DRESDEN, published 2023).
Substitutions are numbered along the chain they refer to. Names and notes keep the numbering of the source.

How the values were obtained:
[1] = target: T1, Cre recombinase monomer with Q311R mutation
T1 chain: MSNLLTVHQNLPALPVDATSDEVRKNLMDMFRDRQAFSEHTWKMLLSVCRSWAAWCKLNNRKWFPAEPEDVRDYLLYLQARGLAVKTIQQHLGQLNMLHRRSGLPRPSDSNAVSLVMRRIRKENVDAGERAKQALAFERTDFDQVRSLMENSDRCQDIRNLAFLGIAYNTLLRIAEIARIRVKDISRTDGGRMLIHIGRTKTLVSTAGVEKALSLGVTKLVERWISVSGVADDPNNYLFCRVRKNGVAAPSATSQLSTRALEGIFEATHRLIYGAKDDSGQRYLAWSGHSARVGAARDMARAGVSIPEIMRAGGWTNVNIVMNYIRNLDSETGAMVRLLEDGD

[2] = target: T2, Cre recombinase monomer with R292W mutation
T2 chain: T1 chain with R292W, R311Q

[3] = target: T3, Cre recombinase monomer with W315I mutation
T3 chain: T1 chain with R311Q, W315I

[4] = target: T4, Cre recombinase monomer with Y324M mutation
T4 chain: T1 chain with R311Q, Y324M

[5] = target: T5, Cre recombinase monomer with E176V mutation
T5 chain: T1 chain with E176V, R311Q

[6] = target: T6, Cre recombinase monomer with Y324E mutation
T6 chain: T1 chain with R311Q, Y324E

[7] = target: T7, Cre recombinase monomer with K201A mutation
T7 chain: T1 chain with K201A, R311Q

[8] = target: T8, Cre recombinase monomer with R292A mutation
T8 chain: T1 chain with R292A, R311Q

[9] = target: T9, Cre recombinase monomer with R292E mutation
T9 chain: T1 chain with R292E, R311Q

[10] = target: T10, Cre recombinase monomer with R292S mutation
T10 chain: T1 chain with R292S, R311Q

[11] = target: T11, Cre recombinase monomer with E176H mutation
T11 chain: T1 chain with E176H, R311Q

[12] = target: T12, Cre recombinase monomer with E176I mutation
T12 chain: T1 chain with E176I, R311Q

[13] = target: T13, Cre recombinase monomer with K201W mutation
T13 chain: T1 chain with K201W, R311Q

B1: Cre recombinase monomer with R173N mutation (protein)
chain: T1 chain with R173N, R311Q
[1]
  Median dimer activity (recombination on loxP): 96%
[2]
  Median dimer activity (recombination on loxP): 44%
[3]
  Median dimer activity (recombination on loxP): 38%
[4]
  Median dimer activity (recombination on loxP): 51%

B2: Cre recombinase monomer with R173S mutation (protein)
chain: T1 chain with R173S, R311Q
[5]
  Median dimer activity (recombination on loxP): 49%
[1]
  Median dimer activity (recombination on loxP): 97%
[6]
  Median dimer activity (recombination on loxP): 59%

B3: Cre recombinase monomer with E176H mutation (protein)
chain: T1 chain with E176H, R311Q
[7]
  Median dimer activity (recombination on loxP): 33%
[1]
  Median dimer activity (recombination on loxP): 51%
[8]
  Median dimer activity (recombination on loxP): 55%
[9]
  Median dimer activity (recombination on loxP): 38%
[10]
  Median dimer activity (recombination on loxP): 68%

B4: Cre recombinase monomer with R173T mutation (protein)
chain: T1 chain with R173T, R311Q
[11]
  Median dimer activity (recombination on loxP): 56%
[12]
  Median dimer activity (recombination on loxP): 72%
[5]
  Median dimer activity (recombination on loxP): 65%
[13]
  Median dimer activity (recombination on loxP): 91%
[1]
  Median dimer activity (recombination on loxP): 92%
